Source: publication PMC7406587, “Improving the production of AHL lactonase AiiO-AIO6 from Ochrobactrum sp. M231 in intracellular protease-deficient Bacillus subtilis” (AMB Express, 2020)

Substrate: CCCCCC(=O)CC(=O)N[C@H]1CCOC1=O
Assay: purified protein
Format: biochemical, Ochrobactrum sp. M231
Conditions: PBS pH 7.0, 30 °C, 30 min, substrate range printed as 0.249 to 0.870 nM in methods, not consistent with Km in mmol/L, hydrolysis assay used 0.248 mM

B1: AiiO-AIO6 (Ochrobactrum sp. M231) (protein)
chain: MKSHEIETSHGRIAIRESRGNGTPLLMIHGNSSAGAIFAPQLEGEIGRNWRVIAPDLPGHGQSGNALDPDRSYSMEGYADVMTEVLAKLGISDAVVFGWSLGGHIGIEMISRFPGMRGLMITGTPPVAREEVGQGFRSGPDMALAGQEAFSDRDVESYARSTCGEPFEEQLLEIVARTDGRARRIMFEKFAAGTGGNQRDIVAEARLPIAVVNGRDEPFVELDFVSKVRFGNLWEGRTHVIDGAGHAPFRETPAIFDDYLQRFMRDCTA
notes: purified recombinant; expressed from pWB-AIO6BS in Bacillus subtilis 1A751 or protease-deletion derivatives (non-classical secretion, no signal peptide); His tag implied by anti-His Western blot; catalytic triad Ser100, Glu214, His246
Km: 415.1 µM | kcat: 9.34 S^-1
